Measurements as given in IntAct's records for PubMed 25910212.

Columns and labels:
[1] = target: cof2_human CFL2 (UniProt Q9Y281)
[2] = target: cap2_human CAP2 (UniProt P40123)
[3] = target: cap2_human CAP2 (UniProt P40123); remark: listed apart in the source
[4] = target: pnma1_human PNMA1 (UniProt Q8ND90)
[5] = target: TMEM239, Q8WW34-2
[6] = target: ldaf1_human LDAF1 (UniProt Q96B96)
[7] = target: reep6_human REEP6 (UniProt Q96HR9)
[8] = target: shlb1_human SH3GLB1 (UniProt Q9Y371)
[9] = target: praf1_human RABAC1 (UniProt Q9UI14)
Sequence of praf1_human RABAC1 (Q9UI14 whole entry): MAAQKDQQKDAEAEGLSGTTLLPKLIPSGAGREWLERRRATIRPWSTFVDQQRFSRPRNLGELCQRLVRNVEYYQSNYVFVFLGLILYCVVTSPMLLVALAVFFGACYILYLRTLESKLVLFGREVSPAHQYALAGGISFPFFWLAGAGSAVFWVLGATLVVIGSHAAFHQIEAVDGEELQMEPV

[10] = target: dtx2_human DTX2 (UniProt Q86UW9)
[11] = target: tfp11_human TFIP11 (UniProt Q9UBB9)
Sequence of tfp11_human TFIP11 (Q9UBB9 whole entry): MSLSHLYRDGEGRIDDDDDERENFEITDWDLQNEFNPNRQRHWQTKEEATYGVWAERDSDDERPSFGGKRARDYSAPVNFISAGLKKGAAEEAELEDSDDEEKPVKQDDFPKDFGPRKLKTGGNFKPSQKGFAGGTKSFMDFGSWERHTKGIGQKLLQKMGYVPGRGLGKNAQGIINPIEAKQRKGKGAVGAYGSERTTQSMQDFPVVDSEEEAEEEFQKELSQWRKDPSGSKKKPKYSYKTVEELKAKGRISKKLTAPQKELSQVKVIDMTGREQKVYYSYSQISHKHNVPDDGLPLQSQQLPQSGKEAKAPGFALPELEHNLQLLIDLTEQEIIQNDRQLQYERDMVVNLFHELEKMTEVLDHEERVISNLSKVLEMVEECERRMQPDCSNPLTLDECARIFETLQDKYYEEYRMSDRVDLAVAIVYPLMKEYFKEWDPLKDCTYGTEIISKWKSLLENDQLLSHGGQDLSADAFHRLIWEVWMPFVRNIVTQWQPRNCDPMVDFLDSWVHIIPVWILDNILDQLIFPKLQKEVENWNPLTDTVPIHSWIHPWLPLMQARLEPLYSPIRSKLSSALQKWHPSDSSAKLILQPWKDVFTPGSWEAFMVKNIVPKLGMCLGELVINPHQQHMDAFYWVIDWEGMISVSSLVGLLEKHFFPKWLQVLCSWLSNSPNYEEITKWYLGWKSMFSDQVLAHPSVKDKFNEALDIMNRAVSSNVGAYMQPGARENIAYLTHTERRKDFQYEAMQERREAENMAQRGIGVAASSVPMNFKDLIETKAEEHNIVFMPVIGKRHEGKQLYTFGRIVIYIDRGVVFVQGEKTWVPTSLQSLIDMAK

[12] = target: AGTRAP, Q6RW13-2
Sequence of AGTRAP, Q6RW13-2 (Q6RW13 other isoform, or with tags, fused parts or gaps): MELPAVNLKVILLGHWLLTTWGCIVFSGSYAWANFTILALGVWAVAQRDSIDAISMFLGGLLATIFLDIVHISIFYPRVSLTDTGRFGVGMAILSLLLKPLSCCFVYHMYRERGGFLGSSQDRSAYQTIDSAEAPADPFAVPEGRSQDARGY

[13] = target: CMTM5, Q96DZ9-2
Sequence of CMTM5, Q96DZ9-2 (Q96DZ9 other isoform, or with tags, fused parts or gaps): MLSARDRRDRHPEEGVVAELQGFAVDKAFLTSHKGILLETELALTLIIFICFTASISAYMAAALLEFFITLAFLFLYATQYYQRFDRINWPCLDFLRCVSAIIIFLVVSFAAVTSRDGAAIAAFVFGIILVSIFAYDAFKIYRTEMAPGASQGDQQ

[14] = target: UBQLN1, Q9UMX0-2
Sequence of UBQLN1, Q9UMX0-2 (Q9UMX0 other isoform, or with tags, fused parts or gaps): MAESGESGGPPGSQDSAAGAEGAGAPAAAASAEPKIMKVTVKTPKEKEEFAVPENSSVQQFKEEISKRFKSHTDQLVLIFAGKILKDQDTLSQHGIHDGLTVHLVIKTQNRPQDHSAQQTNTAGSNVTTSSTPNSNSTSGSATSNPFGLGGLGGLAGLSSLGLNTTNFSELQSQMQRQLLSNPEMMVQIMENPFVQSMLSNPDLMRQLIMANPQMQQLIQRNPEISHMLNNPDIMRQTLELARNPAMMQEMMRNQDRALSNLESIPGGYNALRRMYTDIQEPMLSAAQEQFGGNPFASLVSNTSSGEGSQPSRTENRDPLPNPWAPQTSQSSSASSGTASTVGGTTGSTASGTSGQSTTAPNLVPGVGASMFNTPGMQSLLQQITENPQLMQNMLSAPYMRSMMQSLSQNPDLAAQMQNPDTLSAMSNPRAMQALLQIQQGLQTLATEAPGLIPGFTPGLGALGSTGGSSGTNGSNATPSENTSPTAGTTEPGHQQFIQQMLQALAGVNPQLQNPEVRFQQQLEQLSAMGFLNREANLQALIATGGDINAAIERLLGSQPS

[15] = target: trip6_human TRIP6 (UniProt Q15654)
Sequence of trip6_human TRIP6 (Q15654 whole entry): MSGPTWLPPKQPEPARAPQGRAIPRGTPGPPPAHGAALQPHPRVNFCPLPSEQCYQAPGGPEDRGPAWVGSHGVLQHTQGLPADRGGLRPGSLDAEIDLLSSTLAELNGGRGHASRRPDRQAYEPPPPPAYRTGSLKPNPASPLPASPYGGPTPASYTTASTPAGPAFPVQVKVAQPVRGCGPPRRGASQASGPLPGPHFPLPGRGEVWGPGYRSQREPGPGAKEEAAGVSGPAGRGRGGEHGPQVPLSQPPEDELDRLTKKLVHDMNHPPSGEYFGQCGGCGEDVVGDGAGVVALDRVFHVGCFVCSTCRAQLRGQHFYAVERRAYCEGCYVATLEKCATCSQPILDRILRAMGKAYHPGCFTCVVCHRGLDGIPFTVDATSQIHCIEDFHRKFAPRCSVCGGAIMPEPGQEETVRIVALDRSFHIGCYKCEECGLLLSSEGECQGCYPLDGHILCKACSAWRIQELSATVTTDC

[16] = target: lzts2_human LZTS2 (UniProt Q9BRK4)
[17] = target: mdfi_human MDFI (UniProt Q99750)
Sequence of mdfi_human MDFI (Q99750 whole entry): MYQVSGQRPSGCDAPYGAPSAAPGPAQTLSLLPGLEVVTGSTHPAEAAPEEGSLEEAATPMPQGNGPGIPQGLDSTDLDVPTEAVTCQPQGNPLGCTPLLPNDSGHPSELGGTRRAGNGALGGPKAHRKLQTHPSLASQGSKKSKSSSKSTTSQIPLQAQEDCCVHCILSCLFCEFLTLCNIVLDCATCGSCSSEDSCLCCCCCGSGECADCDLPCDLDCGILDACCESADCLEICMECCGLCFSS

[18] = target: kra32_human KRTAP3-2 (UniProt Q9BYR7)
Sequence of kra32_human KRTAP3-2 (Q9BYR7 whole entry): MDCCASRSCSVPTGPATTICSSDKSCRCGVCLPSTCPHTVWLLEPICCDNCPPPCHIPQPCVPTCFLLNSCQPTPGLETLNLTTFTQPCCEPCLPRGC

[19] = target: T1, SYNE4, Q8N205-2
T1 sequence: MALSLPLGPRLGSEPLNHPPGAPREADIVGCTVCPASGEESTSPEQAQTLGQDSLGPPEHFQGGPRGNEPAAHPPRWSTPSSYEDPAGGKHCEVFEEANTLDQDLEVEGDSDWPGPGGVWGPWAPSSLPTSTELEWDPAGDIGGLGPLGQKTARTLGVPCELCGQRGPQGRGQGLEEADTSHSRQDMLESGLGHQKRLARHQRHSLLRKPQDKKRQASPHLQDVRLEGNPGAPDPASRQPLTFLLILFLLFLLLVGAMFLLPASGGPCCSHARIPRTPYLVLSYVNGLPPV

[20] = target: T2, tmm79_human TMEM79 (UniProt Q9BSE2)
T2 sequence: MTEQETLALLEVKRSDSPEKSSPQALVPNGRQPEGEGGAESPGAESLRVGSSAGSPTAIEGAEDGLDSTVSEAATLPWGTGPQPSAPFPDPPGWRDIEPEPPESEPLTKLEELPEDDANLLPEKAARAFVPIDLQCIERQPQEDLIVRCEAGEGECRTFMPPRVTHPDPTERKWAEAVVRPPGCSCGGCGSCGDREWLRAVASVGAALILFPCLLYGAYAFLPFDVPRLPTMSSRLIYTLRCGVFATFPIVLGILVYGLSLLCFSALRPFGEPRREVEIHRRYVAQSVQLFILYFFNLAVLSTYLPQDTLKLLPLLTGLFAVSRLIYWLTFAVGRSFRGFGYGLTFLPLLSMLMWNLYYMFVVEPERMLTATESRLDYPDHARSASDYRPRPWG

[21] = target: T3, smim3_human SMIM3 (UniProt Q9BZL3)
T3 sequence: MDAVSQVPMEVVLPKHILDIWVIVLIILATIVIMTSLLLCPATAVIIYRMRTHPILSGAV

[22] = target: T3, smim3_human SMIM3; remark: listed apart in the source
[23] = target: gsto2_human GSTO2 (UniProt Q9H4Y5)
Sequence of gsto2_human GSTO2 (Q9H4Y5 whole entry): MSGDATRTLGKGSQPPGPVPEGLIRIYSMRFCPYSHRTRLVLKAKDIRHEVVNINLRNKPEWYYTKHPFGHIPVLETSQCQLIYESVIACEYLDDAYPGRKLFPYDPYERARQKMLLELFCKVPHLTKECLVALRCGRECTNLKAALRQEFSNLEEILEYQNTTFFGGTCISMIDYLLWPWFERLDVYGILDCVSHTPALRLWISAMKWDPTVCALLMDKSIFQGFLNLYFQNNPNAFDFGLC

Sequence of ldaf1_human LDAF1 (Q96B96 whole entry): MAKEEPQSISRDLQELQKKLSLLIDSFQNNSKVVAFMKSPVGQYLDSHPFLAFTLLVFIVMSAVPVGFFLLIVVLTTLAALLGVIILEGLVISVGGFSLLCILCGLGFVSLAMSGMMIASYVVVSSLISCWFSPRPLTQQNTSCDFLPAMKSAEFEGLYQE
Sequence of reep6_human REEP6 (Q96HR9 whole entry): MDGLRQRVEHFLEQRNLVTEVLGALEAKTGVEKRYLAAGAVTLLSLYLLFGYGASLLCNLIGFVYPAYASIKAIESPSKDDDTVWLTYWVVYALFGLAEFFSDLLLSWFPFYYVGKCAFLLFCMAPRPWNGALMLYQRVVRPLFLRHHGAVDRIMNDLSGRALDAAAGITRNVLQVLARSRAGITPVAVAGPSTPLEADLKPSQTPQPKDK
Sequence of TMEM239, Q8WW34-2 (Q8WW34 44-195): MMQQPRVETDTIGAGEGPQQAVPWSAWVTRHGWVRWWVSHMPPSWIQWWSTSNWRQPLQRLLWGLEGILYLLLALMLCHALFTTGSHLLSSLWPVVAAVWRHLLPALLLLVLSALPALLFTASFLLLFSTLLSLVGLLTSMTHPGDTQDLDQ
Sequence of pnma1_human PNMA1 (Q8ND90 whole entry): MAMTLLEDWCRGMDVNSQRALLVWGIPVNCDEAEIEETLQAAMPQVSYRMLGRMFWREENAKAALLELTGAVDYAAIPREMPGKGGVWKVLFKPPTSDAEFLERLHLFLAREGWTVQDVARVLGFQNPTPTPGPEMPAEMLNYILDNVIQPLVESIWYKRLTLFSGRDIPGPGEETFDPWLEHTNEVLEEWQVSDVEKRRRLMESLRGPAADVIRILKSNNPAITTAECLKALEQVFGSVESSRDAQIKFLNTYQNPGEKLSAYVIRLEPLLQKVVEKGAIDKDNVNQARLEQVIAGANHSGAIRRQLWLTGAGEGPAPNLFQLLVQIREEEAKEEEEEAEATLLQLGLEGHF
Sequence of Erythroid transcription factor (Homo sapiens), P15976-2 G208R (P15976 other isoform, or with tags, fused parts or gaps G208R): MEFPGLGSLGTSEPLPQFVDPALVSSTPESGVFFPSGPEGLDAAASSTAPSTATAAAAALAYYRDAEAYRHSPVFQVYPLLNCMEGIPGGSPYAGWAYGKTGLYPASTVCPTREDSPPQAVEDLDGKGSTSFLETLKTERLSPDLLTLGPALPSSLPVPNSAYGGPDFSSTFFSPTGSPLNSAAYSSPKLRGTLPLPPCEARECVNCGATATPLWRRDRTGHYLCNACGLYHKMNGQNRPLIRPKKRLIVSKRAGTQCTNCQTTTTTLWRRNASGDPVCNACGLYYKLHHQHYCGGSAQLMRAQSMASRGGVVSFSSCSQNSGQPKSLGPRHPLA
Sequence of Erythroid transcription factor (Homo sapiens), P15976-2 D218G (P15976 other isoform, or with tags, fused parts or gaps D218G): as the sequence (P15976 other isoform, or with tags, fused parts or gaps G208R) above
Sequence of Erythroid transcription factor (Homo sapiens), P15976-2 V205M (P15976 other isoform, or with tags, fused parts or gaps V205M): as the sequence (P15976 other isoform, or with tags, fused parts or gaps G208R) above

Actin, cytoplasmic 2 (Homo sapiens) (from UniProt P63261) I122V
effect of a mutation on the interaction [1]: disrupting interaction strength
effect of a mutation on the interaction [2]: disrupting interaction strength

Actin, cytoplasmic 2 (Homo sapiens) (from UniProt P63261) P264L
effect of a mutation on the interaction [3]: causing an interaction
effect of a mutation on the interaction [1]: disrupting interaction strength
effect of a mutation on the interaction [2]: with no effect

Actin, cytoplasmic 2 (Homo sapiens) (from UniProt P63261) T89I
effect of a mutation on the interaction [3]: causing an interaction
effect of a mutation on the interaction [1]: with no effect
effect of a mutation on the interaction [2]: with no effect

Aprataxin (Homo sapiens), Q7Z2E3-7 A198V
effect of a mutation on the interaction [4]: with no effect

Aprataxin (Homo sapiens), Q7Z2E3-7 H228R
effect of a mutation on the interaction [4]: disrupting interaction strength

Aprataxin (Homo sapiens), Q7Z2E3-7 V263G
effect of a mutation on the interaction [4]: disrupting interaction strength

Atypical kinase COQ8A, mitochondrial (Homo sapiens), Q8NI60 E551K
effect of a mutation on the interaction [5]: disrupting interaction strength
effect of a mutation on the interaction [6]: disrupting interaction strength
effect of a mutation on the interaction [7]: disrupting interaction strength
effect of a mutation on the interaction [8]: disrupting interaction strength
effect of a mutation on the interaction [9]: disrupting interaction strength
effect of a mutation on the interaction [10]: disrupting interaction strength
effect of a mutation on the interaction [11]: disrupting interaction strength
effect of a mutation on the interaction [12]: with no effect
effect of a mutation on the interaction [13]: with no effect

Atypical kinase COQ8A, mitochondrial (Homo sapiens), Q8NI60 G272V
effect of a mutation on the interaction [5]: disrupting interaction strength
effect of a mutation on the interaction [6]: disrupting interaction strength
effect of a mutation on the interaction [7]: disrupting interaction strength
effect of a mutation on the interaction [8]: with no effect
effect of a mutation on the interaction [9]: disrupting interaction strength
effect of a mutation on the interaction [10]: with no effect
effect of a mutation on the interaction [11]: disrupting interaction strength
effect of a mutation on the interaction [12]: with no effect
effect of a mutation on the interaction [13]: with no effect

Atypical kinase COQ8A, mitochondrial (Homo sapiens), Q8NI60 H80Y
effect of a mutation on the interaction [5]: with no effect
effect of a mutation on the interaction [6]: with no effect
effect of a mutation on the interaction [7]: with no effect
effect of a mutation on the interaction [8]: with no effect
effect of a mutation on the interaction [9]: with no effect
effect of a mutation on the interaction [10]: with no effect
effect of a mutation on the interaction [11]: with no effect
effect of a mutation on the interaction [12]: with no effect
effect of a mutation on the interaction [13]: with no effect

Atypical kinase COQ8A, mitochondrial (Homo sapiens), Q8NI60 H85Q
effect of a mutation on the interaction [5]: with no effect
effect of a mutation on the interaction [6]: with no effect
effect of a mutation on the interaction [7]: with no effect
effect of a mutation on the interaction [8]: with no effect
effect of a mutation on the interaction [9]: with no effect
effect of a mutation on the interaction [10]: with no effect
effect of a mutation on the interaction [11]: with no effect
effect of a mutation on the interaction [12]: with no effect
effect of a mutation on the interaction [13]: with no effect

Atypical kinase COQ8A, mitochondrial (Homo sapiens), Q8NI60 R213W
effect of a mutation on the interaction [5]: disrupting interaction strength
effect of a mutation on the interaction [6]: disrupting interaction strength
effect of a mutation on the interaction [7]: disrupting interaction strength
effect of a mutation on the interaction [8]: disrupting interaction strength
effect of a mutation on the interaction [9]: disrupting interaction strength
effect of a mutation on the interaction [10]: disrupting interaction strength
effect of a mutation on the interaction [11]: disrupting interaction strength
effect of a mutation on the interaction [12]: disrupting interaction strength
effect of a mutation on the interaction [13]: disrupting interaction strength

Atypical kinase COQ8A, mitochondrial (Homo sapiens), Q8NI60 Y514C
effect of a mutation on the interaction [5]: with no effect
effect of a mutation on the interaction [6]: with no effect
effect of a mutation on the interaction [7]: with no effect
effect of a mutation on the interaction [8]: with no effect
effect of a mutation on the interaction [9]: with no effect
effect of a mutation on the interaction [10]: with no effect
effect of a mutation on the interaction [11]: with no effect
effect of a mutation on the interaction [12]: with no effect
effect of a mutation on the interaction [13]: with no effect

Cytosolic 5'-nucleotidase 3A (Homo sapiens) (from UniProt Q9H0P0) C113R
effect of a mutation on the interaction [14]: with no effect

Cytosolic 5'-nucleotidase 3A (Homo sapiens) (from UniProt Q9H0P0) D137V
effect of a mutation on the interaction [14]: with no effect

Cytosolic 5'-nucleotidase 3A (Homo sapiens) (from UniProt Q9H0P0) F36L
effect of a mutation on the interaction [14]: with no effect

Cytosolic 5'-nucleotidase 3A (Homo sapiens) (from UniProt Q9H0P0) G207R
effect of a mutation on the interaction [14]: disrupting interaction strength

Cytosolic 5'-nucleotidase 3A (Homo sapiens) (from UniProt Q9H0P0) G280R
effect of a mutation on the interaction [14]: with no effect

Erythroid transcription factor (Homo sapiens), P15976-2 D218G
effect of a mutation on the interaction [15]: with no effect
effect of a mutation on the interaction [16]: with no effect
effect of a mutation on the interaction [17]: with no effect
effect of a mutation on the interaction [18]: with no effect

Erythroid transcription factor (Homo sapiens), P15976-2 G208R
effect of a mutation on the interaction [15]: with no effect
effect of a mutation on the interaction [16]: with no effect
effect of a mutation on the interaction [17]: with no effect
effect of a mutation on the interaction [18]: with no effect

Erythroid transcription factor (Homo sapiens), P15976-2 V205M
effect of a mutation on the interaction [15]: with no effect
effect of a mutation on the interaction [16]: disrupting interaction strength
effect of a mutation on the interaction [17]: with no effect
effect of a mutation on the interaction [18]: with no effect

Surfactant protein C (Homo sapiens) (from UniProt P11686) H64P
effect of a mutation on the interaction [19]: with no effect
effect of a mutation on the interaction [20]: with no effect
effect of a mutation on the interaction [21]: causing an interaction
effect of a mutation on the interaction [22]: with no effect

Surfactant protein C (Homo sapiens) (from UniProt P11686) P30L
effect of a mutation on the interaction [19]: with no effect
effect of a mutation on the interaction [20]: with no effect
effect of a mutation on the interaction [21]: causing an interaction
effect of a mutation on the interaction [22]: with no effect

Transcription factor AP-2-alpha (Homo sapiens), P05549-5 G256E
effect of a mutation on the interaction [23]: with no effect

Transcription factor AP-2-alpha (Homo sapiens), P05549-5 R248W
effect of a mutation on the interaction [23]: with no effect

Transcription factor AP-2-alpha (Homo sapiens), P05549-5 R249G
effect of a mutation on the interaction [23]: with no effect
